Reference: US20250346685A1 (published 2025)

Legend:
[1] = biological target: T1, human CD3 on T cells (Jurkat cells; human peripheral blood CD4+ and CD8+ T-cells) (human, UniProt P07766 23-207); test: flow cytometry on peripheral blood CD4+ T-cells
T1 construct: whole, on cells; also called CD4T; CD4 + T
Protocol: (§1) Fresh human or cynomolgus monkey peripheral blood was taken and PBMC was isolated by Ficoll. Paque Plus (GE, 17-1440-03). PBMC was adjusted to 5×10⁵ cells/mL with 4% calf serum (Hyclone, SH30626.06), 100 μL/well was added to a 96-well U-plate, the supernatant was centrifuged off and 100 μL of gradient diluted antibody (with starting concentration of 1800 nM, 3-fold dilution, 10 gradients) was added to each well and incubated for 60 min at 4° C. 50 μL/well Alexa Fluro647 labeled goat anti-human IgG Fc (1:300 dilution) was added to secondary antibody, with ice bath for 20 min. 50 μL/well PI was added after washing once and incubated for 5 min, and flow cytometer (BD Celesta) is used to make detection.

[2] = biological target: T2, cynomolgus monkey GPC3 on CHO stably transfected cells (cynomolgus monkey, UniProt A0A2K5VK50 24-553); test: flow cytometry on CHO-cynomolgus monkey GPC3 stably transfected cells
T2 construct: whole, on cells; also called Cynomolgus monkey GPC3-CHO; CHO-Cynomolgus monkey GPC3
Protocol: (§2) CHO-human GPC3, CHO-Cynomolgus monkey GPC3 stably transfected cells or human hepatocellular carcinoma HepG2 tumor cells in logarithmic growth phase were taken. After blocking, the cells were adjusted to 5×10⁵ cells/ml, and 100 μl/well cell suspension was added to 96-well U-shaped plate and centrifuged at 300 g for 5 min. The supernatant was discarded, 100 μL of gradient diluted antibody (with a starting concentration of 1800 nM, 3-fold dilution, 10 gradients) was added to each well, and incubated at 4° C. for 60 min. 50 μL/well Alexa Fluro647 labeled goat anti-human IgG Fc (1:300 dilution) were added to the secondary antibody, incubated on ice for 20 min, added with 50 μL/well PI solution (1:300) after washing once, incubated for 5 min, and flow cytometer was used to make detection.

[3] = biological target: T1, human CD3 on T cells (Jurkat cells; …); test: flow cytometry on peripheral blood CD8+ T-cells
Protocol: as §1

[4] = biological target: T3, human GPC3 on cells (CHO-human GPC3 stably transfected cells; HepG2 tumor cells) (human, UniProt P51654 25-554); test: flow cytometry on HepG2 cells
T3 construct: whole, on cells; also called Human GPC3-CHO
Protocol: as §2

[5] = biological target: T1, human CD3 on T cells (Jurkat cells; …); test: flow cytometry on Jurkat cells
Protocol: The cells were adjusted to 5×10^5 cells/mL with 4% calf serum, 100 μL/well was added to 96-well U-plate, 300 g was centrifuged to removed the supernatant, 100 μL/well of gradient diluted antibody (initial concentration: 1800 nM, 3-fold dilution, 10 gradients) was added and incubated at 4° C. for 60 min. 50 μL/well Alexa Fluro647-labeled goat anti-human IgG Fc (1:300 dilution) was added to the secondary antibody and incubated on ice for 20 min. 50 μL/well PI was added after washing once, incubated for 5 min, and detected with flow cytometer (BD C6).

[6] = biological target: T3, human GPC3 on cells (CHO-human GPC3 …); test: flow cytometry on CHO-human GPC3 stably transfected cells
Protocol: as §2

| Binder | EC50 [1] [nM] | EC50 [2] [nM] | EC50 [3] [nM] | EC50 [4] [nM] | EC50 [5] [nM] | EC50 [6] [nM] |
| --- | --- | --- | --- | --- | --- | --- |
| GPC3 × CD3 κλ002 (bispecific antibody, human IgG4 S228P, kappa, lambda, also called GPC3×CD3 κλ bispecific antibody) light 1: DVVMTQSPLSLPVTPGEPASISCRSSQSIVHSNGNTYLEWYLKKPGQSPQLLIYKVSNRFSGVPDRFSGSGSGTDFTLKISRVEAEDVGVYFCLQVTHVPLTFGQGTKLEIKRTVAAPSVFIFPPSDEQLKSGTASVVCLLNNFYPREAKVQWKVDNALQSGNSQESVTEQDSKDSTYSLSSTLTLSKADYEKHKVYACEVTHQGLSSPVTKSFNRGEC heavy 1: QVQLVQSGAEVKKPGSSVKVSCKASGYTFADYEIHWVREAPGQGLEWMGAIHPGSGGTAYAQKFQGRVTLTADESSTTAYMELSSLRSEDTAVYYCTRYYSFAYWGQGTLVTVSSASTKGPSVFPLAPCSRSTSESTAALGCLVKDYFPEPVTVSWNSGALTSGVHTFPAVLQSSGLYSLSSVVTVPSSSLGTKTYTCNVDHKPSNTKVDKRVESKYGPPCPPCPAPEFEGGPSVFLFPPKPKDTLMISRTPEVTCVVVDVSQEDPEVQFNWYVDGVEVHNAKTKPREEQFNSTYRVVSVLTVLHQDWLNGKEYKCKVSNKGLASSIEKTISKAKGQPREPQVCTLPPSQEEMTKNQVSLSCAVKGFYPSDIAVEWESNGQPENNYKTTPPVLDSDGSFFLVSKLTVDKSRWQEGNVFSCSVMHEALHNHYTQKSLSLSLGK light 2: QAVVTQEPSLTVSPGGTVTLTCRSSTGAVTTSNYANWVQEKPGQAPRGLIGGTNKRAPWTPARFSGSLLGGKAALTITGAQAEDEAEYYCVLWYSNLWVFGGGTKLTVLGQPKAAPSVTLFPPSSEELQANKATLVCLISDFYPGAVTVAWKADSSPVKAGVETTTPSKQSNNKYAASSYLSLTPEQWKSHRSYSCQVTHEGSTVEKTVAPTECS heavy 2: EVQLVESGGGLVQPGGSLRLSCAASGFTFNTYAMNWVRKAPGKGLEWVGRIRSKYNNYATYYADSVKDRFTISRDDSKNSLYLQMNSLKTEDTAVYYCVRHGNFGNSYVSWFAYWGQGTLVTVSSASTKGPSVFPLAPCSRSTSESTAALGCLVKDYFPEPVTVSWNSGALTSGVHTFPAVLQSSGLYSLSSVVTVPSSSLGTKTYTCNVDHKPSNTKVDKRVESKYGPPCPPCPAPEFEGGPSVFLFPPKPKDTLMISRTPEVTCVVVDVSQEDPEVQFNWYVDGVEVHNAKTKPREEQFNSTYRVVSVLTVLHQDWLNGKEYKCKVSNKGLASSIEKTISKAKGQPREPQVYTLPPCQEEMTKNQVSLWCLVKGFYPSDIAVEWESNGQPENNYKTTPPVLDSDGSFFLYSKLTVDKSRWQEGNVFSCSVMHEALHNHYTQKSLSLSLGK | 65 | 3 | 65 | 2.1 | 36 | 2.8 |
| GPC3 × CD3 κλ003 (bispecific antibody, human IgG4 S228P, kappa, lambda, Human IgG4 knob-into-hole Fc with Ser228Pro, Leu235Glu, Pro329Ala; also called GPC3×CD3 κλ bispecific antibody) light 1: DVVMTQSPLSLPVTPGEPASISCRSSQSIVHSNGNTYLEWYLKKPGQSPQLLIYKVSNRFSGVPDRFSGSGSGTDFTLKISRVEAEDVGVYFCLQVTHVPLTFGQGTKLEIKRTVAAPSVFIFPPSDKKLKSGTASVVCLLNNFYPREAKVQWKVDNALQSGNSQESVTEQDSKDSTYSLSSTLTLSKADYEKHKVYACEVTHQGLSSPVTKSFNRGEC heavy 1: QVQLVQSGAEVKKPGSSVKVSCKASGYTFADYEIHWVREAPGQGLEWMGAIHPGSGGTAYAQKFQGRVTLTADESSTTAYMELSSLRSEDTAVYYCTRYYSFAYWGQGTLVTVSSASTKGPSVFPLAPCSRSTSESTAALGCLVEDYFPEPVTVSWNSGALTSGVHTFPAVLQSSGLYSLSSVVTVPSSSLGTKTYTCNVDHKPSNTKVDERVESKYGPPCPPCPAPEFEGGPSVFLFPPKPKDTLMISRTPEVTCVVVDVSQEDPEVQFNWYVDGVEVHNAKTKPREEQFNSTYRVVSVLTVLHQDWLNGKEYKCKVSNKGLASSIEKTISKAKGQPREPQVCTLPPSQEEMTKNQVSLSCAVKGFYPSDIAVEWESNGQPENNYKTTPPVLDSDGSFFLVSKLTVDKSRWQEGNVFSCSVMHEALHNHYTQKSLSLSLGK light 2: QAVVTQEPSLTVSPGGTVTLTCRSSTGAVTTSNYANWVQEKPGQAPRGLIGGTNKRAPWTPARFSGSLLGGKAALTITGAQAEDEAEYYCVLWYSNLWVFGGGTKLTVLGQPKAAPSVTLFPPSSEELQANKATLVCLISDFYPGAVTVAWKADSSPVKAGVETTTPSKQSNNKYAASSYLSLTPEQWKSHRSYSCQVTHEGSTVEKTVAPTECS heavy 2: EVQLVESGGGLVQPGGSLRLSCAASGFTFNTYAMNWVRKAPGKGLEWVGRIRSKYNNYATYYADSVKDRFTISRDDSKNSLYLQMNSLKTEDTAVYYCVRHGNFGNSYVSWFAYWGQGTLVTVSSASTKGPSVFPLAPCSRSTSESTAALGCLVKDYFPEPVTVSWNSGALTSGVHTFPAVLQSSGLYSLSSVVTVPSSSLGTKTYTCNVDHKPSNTKVDKRVESKYGPPCPPCPAPEFEGGPSVFLFPPKPKDTLMISRTPEVTCVVVDVSQEDPEVQFNWYVDGVEVHNAKTKPREEQFNSTYRVVSVLTVLHQDWLNGKEYKCKVSNKGLASSIEKTISKAKGQPREPQVYTLPPCQEEMTKNQVSLWCLVKGFYPSDIAVEWESNGQPENNYKTTPPVLDSDGSFFLYSKLTVDKSRWQEGNVFSCSVMHEALHNHYTQKSLSLSLGK | 56 | 3 | 69 | 2.5 | 26 | 2.9 |
